Eleven molecules from US20220025021A1 (BETH ISRAEL DEACONESS MEDICAL CENTER, published 2022) can be followed below.

Residue numbers refer to the chain shown, from its start.

Holding throughout (experiment): cell-based or functional assay
The target of assay [1] is HIV-1 Env of pseudovirus SC422661.8 (HIV-1).
Assay [2] has as its target HIV-1 Env of pseudovirus Du172.17 (HIV-1).
Assay [3] deals with HIV-1 Env of pseudovirus BB1012-11.TC21 (HIV-1).
Assay [4] has as its target HIV-1 Env of pseudovirus CNE52 (HIV-1).
Assay [5] deals with HIV-1 Env of pseudovirus RHPA4259.7 (HIV-1).
Assay [6] has as its target HIV-1 Env of pseudovirus 0260.v5.c36 (HIV-1).

B1: MS-70 (antibody, V domains shown)
VH: QVQLVQSGPEVRKPGTSVKVSCKAPGNTLKTYDLHWVRSVPGQGLQWMGWISHEGDKKVIVERFKAKVTIDWDRSTNTAYLQLSGLTSGDTAVYYCAKGSKHRLRDYALYDDDGALNWAVDVDYLSNLEFWGQGTAVTVSS
VL: DFVLTQSPHSLSVTPGESASISCKSSHSLIHGDRNNYLAWYVQKPGQSPQLLIYLASSRASGVPDRFSGSGSDKDFTLKISRVETEDVGTYYCMQGRESPWTFGQGTKVDIKR
For B1, the “neutralization IC50” value in assay [1] stood at 0.391 µg/mL; in assay [2], 1.49 µg/mL; in assay [3], 0.021 µg/mL; in assay [4] it was 0.301 µg/mL; in assay [5], 0.182 µg/mL; in assay [6] it was 0.028 µg/mL. Further, the “neutralization IC80” value in assay [1] came to 2.43 µg/mL; in assay [2], 6.05 µg/mL; in assay [3], 0.079 µg/mL; in assay [4] it was 2.55 µg/mL; in assay [5], 0.734 µg/mL; in assay [6], 0.103 µg/mL.

B2: MS-76 (antibody, V domains shown)
VH: B1 VH with N27Y
VL: B1 VL with Q47R
With B2, the “neutralization IC50” value in assay [1] was determined as 0.36 µg/mL; in assay [2], 1.7 µg/mL; in assay [3] it was 0.013 µg/mL; in assay [4], 0.174 µg/mL; in assay [5], 0.242 µg/mL; in assay [6], 0.01 µg/mL. Besides, the “neutralization IC80” value was found to be 6.46 µg/mL in assay [1]; 9.68 µg/mL in assay [2]; 0.059 µg/mL in assay [3]; 1.37 µg/mL in assay [4]; 0.842 µg/mL in assay [5]; 0.06 µg/mL in assay [6].

B3: MS-78 (antibody, V domains shown)
VH: B1 VH with Q46E
VL: B1 VL with Q47R
Consider B3, for which the “neutralization IC50” value was 0.635 µg/mL in assay [1]; 1.71 µg/mL in assay [2]; 0.024 µg/mL in assay [3]; 0.233 µg/mL in assay [4]; 0.241 µg/mL in assay [5]; 0.02 µg/mL in assay [6]. In addition, the “neutralization IC80” value in assay [1] was found to be 3.63 µg/mL; in assay [2] it was 7 µg/mL; in assay [3], 0.105 µg/mL; in assay [4], 1.39 µg/mL; in assay [5] it was 0.841 µg/mL; in assay [6], 0.095 µg/mL.

B4: MS-75 (antibody, V domains shown)
VH: B1 VH with P25S
VL: B1 VL with Q47R
Regarding B4, the “neutralization IC50” value in assay [1] was determined as 0.489 µg/mL; in assay [2], 3.56 µg/mL; in assay [3], 0.029 µg/mL; in assay [4], 0.687 µg/mL; in assay [5], 0.276 µg/mL; in assay [6], 0.034 µg/mL. For the same molecule, the “neutralization IC80” value in assay [1] is 9.41 µg/mL; in assay [2], 16.1 µg/mL; in assay [3], 0.134 µg/mL; in assay [4], 7.55 µg/mL; in assay [5], 1.31 µg/mL; in assay [6] it was 0.137 µg/mL.

B5: MS-74 (antibody, V domains shown)
VH: B1 VH
VL: B1 VL with Q47R, T90V
Regarding B5, the “neutralization IC50” value stood at 0.388 µg/mL in assay [1]; 1.46 µg/mL in assay [2]; 0.021 µg/mL in assay [3]; 0.169 µg/mL in assay [4]; 0.132 µg/mL in assay [5]; 0.017 µg/mL in assay [6]. For the same molecule, the “neutralization IC80” value in assay [1] amounted to 3.51 µg/mL; in assay [2], 5.57 µg/mL; in assay [3] it was 0.093 µg/mL; in assay [4], 1.46 µg/mL; in assay [5], 0.461 µg/mL; in assay [6], 0.086 µg/mL.

B6: MS-77 (antibody, V domains shown)
VH: B1 VH with L29F
VL: B1 VL with Q47R
Take B6: the “neutralization IC50” value turned out to be 0.373 µg/mL in assay [1]; 2.23 µg/mL in assay [2]; 0.023 µg/mL in assay [3]; 0.322 µg/mL in assay [4]; 0.209 µg/mL in assay [5]; 0.019 µg/mL in assay [6]. For the same molecule, the “neutralization IC80” value in assay [1] amounted to 3.59 µg/mL; in assay [2], 12.2 µg/mL; in assay [3] it was 0.103 µg/mL; in assay [4], 2.71 µg/mL; in assay [5] it was 0.734 µg/mL; in assay [6] it was 0.101 µg/mL.

B7: MS-72 (antibody, V domains shown)
VH: B1 VH
VL: B1 VL with Q47R, K74T
B7: the “neutralization IC50” value was determined as 0.373 µg/mL in assay [1]; 1.75 µg/mL in assay [2]; 0.023 µg/mL in assay [3]; 0.302 µg/mL in assay [4]; 0.247 µg/mL in assay [5]; 0.023 µg/mL in assay [6]. Moreover, the “neutralization IC80” value was 2.83 µg/mL in assay [1]; 8.76 µg/mL in assay [2]; 0.089 µg/mL in assay [3]; 4.53 µg/mL in assay [4]; 1.16 µg/mL in assay [5]; 0.114 µg/mL in assay [6].

B8: MS-68 (antibody)
VH: not shown
VL: DFVLTQSPHSLPVTPGESASISCKSSHSLIHGDRNNYLAWYVQKPGRSPQLLIYLASSRASGVPDRFSGSGSDKDFTLKISRVETEDVGTYYCMQGRESPWTFGQGTKVDIKRTVAAPSVFIFPPSDEQLKSGTASVVCLLNNFYPREAKVQWKVDNALQSGNSQESVTEQDSKDSTYSLSSTLTLSKADYEKHKVYACEVTHQGLSSPVTKSFNRGEC
In the case of B8, the “neutralization IC50” value in assay [1] came to 0.538 µg/mL; in assay [2] it was 1.82 µg/mL; in assay [3] it was 0.023 µg/mL; in assay [4] it was 0.136 µg/mL; in assay [5], 0.199 µg/mL; in assay [6] it was 0.019 µg/mL. Also, the “neutralization IC80” value came out at 2.02 µg/mL in assay [1]; 6.8 µg/mL in assay [2]; 0.076 µg/mL in assay [3]; 1.13 µg/mL in assay [4]; 0.759 µg/mL in assay [5]; 0.073 µg/mL in assay [6].

B9: MS-71 (antibody)
VH: not shown
VL: B8 VL with P12S, D73G
For B9, the “neutralization IC50” value in assay [1] was determined as 0.273 µg/mL; in assay [2], 1.29 µg/mL; in assay [3], 0.015 µg/mL; in assay [4], 0.172 µg/mL; in assay [5], 0.164 µg/mL; in assay [6], 0.022 µg/mL. The “neutralization IC80” value stood at 1.94 µg/mL in assay [1]; 6.07 µg/mL in assay [2]; 0.054 µg/mL in assay [3]; 2.59 µg/mL in assay [4]; 0.583 µg/mL in assay [5]; 0.062 µg/mL in assay [6].

B10: MS-69 (antibody)
VH: not shown
VL: B8 VL with P12S, S18P
In the case of B10, the “neutralization IC50” value was 0.609 µg/mL in assay [1]; 1.4 µg/mL in assay [2]; 0.018 µg/mL in assay [3]; 0.129 µg/mL in assay [4]; 0.139 µg/mL in assay [5]; 0.021 µg/mL in assay [6]. The “neutralization IC80” value was 3.37 µg/mL in assay [1]; 5.6 µg/mL in assay [2]; 0.071 µg/mL in assay [3]; 1.9 µg/mL in assay [4]; 0.811 µg/mL in assay [5]; 0.078 µg/mL in assay [6].

B11: MS-73 (antibody)
VH: not shown
VL: B8 VL with P12S, T85A
For B11, the “neutralization IC50” value was determined as 0.384 µg/mL in assay [1]; 0.934 µg/mL in assay [2]; 0.023 µg/mL in assay [3]; 0.207 µg/mL in assay [4]; 0.094 µg/mL in assay [5]; 0.018 µg/mL in assay [6]. The “neutralization IC80” value in assay [1] was 2.54 µg/mL; in assay [2], 5 µg/mL; in assay [3] it was 0.086 µg/mL; in assay [4], 1.81 µg/mL; in assay [5] it was 0.549 µg/mL; in assay [6] it was 0.065 µg/mL.
